According to PMC10811483:

Assays:
Experiment in all cases: SPR
[1] = target: Z-M_D37AzK
[2] = target: Z-M_H19AzK-PyOx
[3] = target: Z-M_H19AzK
[4] = target: Z-M_K33AzK-PyOx
[5] = target: Z-M_K33AzK
[6] = target: Z-M_M8AzK-PyOx
[7] = target: Z-M_M8AzK

In the case of trastuzumab WT (antibody), the Kd [1] is reported as 3.52 nM, the Kd [2] is reported as 4.94 nM and the Kd [3] is reported as 5.1 nM. For the same substance, the Kd [4] was 3.48 nM, the Kd [5] was 4.85 nM and the Kd [6] was 5.02 nM. It also gave a Kd [7] of 3.94 nM.
